Measurements from PMC6393306.
Read-outs that look alike come from different tables or passages of the source.

Tests used:
[1] = target: T1, GEN1 1-527 (dimer) (Homo sapiens, UniProt Q17RS7 1-527); test: EMSA
T1 sequence: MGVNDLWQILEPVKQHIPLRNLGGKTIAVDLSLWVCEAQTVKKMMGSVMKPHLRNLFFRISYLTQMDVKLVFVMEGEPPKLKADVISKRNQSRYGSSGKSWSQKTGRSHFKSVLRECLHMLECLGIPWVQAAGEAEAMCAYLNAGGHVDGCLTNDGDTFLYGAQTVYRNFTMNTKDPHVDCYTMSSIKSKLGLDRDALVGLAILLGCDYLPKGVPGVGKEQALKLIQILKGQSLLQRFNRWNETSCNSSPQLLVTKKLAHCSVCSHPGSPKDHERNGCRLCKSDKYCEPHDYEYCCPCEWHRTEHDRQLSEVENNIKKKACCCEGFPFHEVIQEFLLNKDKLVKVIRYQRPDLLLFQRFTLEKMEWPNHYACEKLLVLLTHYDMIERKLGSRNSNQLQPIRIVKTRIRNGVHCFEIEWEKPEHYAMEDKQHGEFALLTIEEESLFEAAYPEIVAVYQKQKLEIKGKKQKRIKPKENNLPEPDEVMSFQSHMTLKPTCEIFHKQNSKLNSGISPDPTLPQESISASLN

[2] = target: T1, GEN1 1-527 (dimer); test: EMSA; remark: listed apart in the source

B1: X0 (Cy5, EMSA) (structured_DNA)
DNA 1: ACGCTGCCGAATTCTACCAGTGCCTTGCTAGGACATCTTTGCCCACCTGCAGGTTCACCC
DNA 2: GGGTGAACCTGCAGGTGGGCAAAGATGTCCATCTGTTGTAATCGTCAAGCTTTATGCCGT
DNA 3: ACGGCATAAAGCTTGACGATTACAACAGATCATGGAGCTGTCTAGAGGATCCGACTATCG
DNA 4: CGATAGTCGGATCCTCTAGACAGCTCCATGTAGCAAGGCACTGGTAGAATTCGGCAGCGT
- Kd [1]: 23.4 nM
- Kd [2]: 6.23 nM
